Measurements as given in publication PMC3938430, “Biochemical Characterization of a Haloalkane Dehalogenase DadB from Alcanivorax dieselolei B-5” (PLoS ONE, 2014).

Assays:
Experiment in all cases: steady-state kinetics, gas chromatography (FID)
DadB = molecular target: T1, DadB (Alloalcanivorax dieselolei, UniProt K0CAI2); format: biochemical; conditions: 100 mM glycine buffer, pH 8.6, 37°C; substrate self-inhibition constant
T1 construct: gene B5T_00392; HLD-II subfamily, nucleophile D108
Text: (§1) steady-state kinetics, gas chromatography (FID) on DadB

BrCCBr = tested on: T2, BrCCBr; format: biochemical, Alloalcanivorax dieselolei; conditions: 100 mM glycine buffer, pH 8.6, 37°C
T2 construct: HLD-II subfamily, nucleophile D108
Text: as §1

C=C(Cl)CCl = tested on: T3, C=C(Cl)CCl; format: biochemical, Alloalcanivorax dieselolei; conditions: 100 mM glycine buffer, pH 8.6, 37°C
T3 construct: HLD-II subfamily, nucleophile D108
Text: as §1

CCCCCl = format: biochemical, Alloalcanivorax dieselolei; conditions: 100 mM glycine buffer, pH 8.6, 37°C
Text: as §1

BrCCCBr = format: biochemical, Alloalcanivorax dieselolei; conditions: 100 mM glycine buffer, pH 8.6, 37°C
Text: as §1

C=C(C)CCl = tested on: T4, C=C(C)CCl; format: biochemical, Alloalcanivorax dieselolei; conditions: 100 mM glycine buffer, pH 8.6, 37°C
T4 construct: HLD-II subfamily, nucleophile D108
Text: as §1

N#CCCCBr = format: biochemical, Alloalcanivorax dieselolei; conditions: 100 mM glycine buffer, pH 8.6, 37°C, fit with substrate inhibition
Text: as §1

Compound | k i (DadB) [mM] | Km (BrCCBr) [mM] | kcat (BrCCBr) [s⁻¹] | kcat/Km (BrCCBr) [M⁻¹ s⁻¹] | Km (C=C(Cl)CCl) [mM] | kcat (C=C(Cl)CCl) [s⁻¹] | kcat/Km (C=C(Cl)CCl) [M⁻¹ s⁻¹] | Km (CCCCCl) [mM] | kcat (CCCCCl) [s⁻¹] | kcat/Km (CCCCCl) [M⁻¹ s⁻¹] | Km (BrCCCBr) [mM] | kcat (BrCCCBr) [s⁻¹] | kcat/Km (BrCCCBr) [M⁻¹ s⁻¹] | Km (C=C(C)CCl) [mM] | kcat (C=C(C)CCl) [s⁻¹] | kcat/Km (C=C(C)CCl) [M⁻¹ s⁻¹] | Km (N#CCCCBr) [mM] | kcat (N#CCCCBr) [s⁻¹] | kcat/Km (N#CCCCBr) [M⁻¹ s⁻¹]
N#CCCCBr [4-bromobutanenitrile] | 17.93 ± 1.97 |  |  |  |  |  |  |  |  |  |  |  |  |  |  |  |  |  | 
DadB (Alloalcanivorax dieselolei B5) |  | 8.70 ± 0.44 | 17.9 ± 0.5 | 2060 | 15.06 ± 1.37 | 20.1 ± 1.09 | 1330 | 4.88 ± 0.35 | 1.17 ± 0.1 | 240 | 0.82 ± 0.04 | 13.4 ± 0.99 | 16400 | 11.33 ± 0.99 | 34.3 ± 1.99 | 3020 | 8.47 ± 1.27 | 30.8 ± 2.49 | 3640
